We go through two molecules from patent US11813311B2, “Treatment and prevention of metabolic diseases” (Singapore Health Services PTE LTD., priority 2019, dated 2023).

Assay [1] relates to HSCs. The experiment in a line: HSC-to-myofibroblast transformation (ACTA2/Collagen I, Operetta). It is filed as cell-based, human. As to conditions: antibody 2 μg/ml, 24 h. How it is done: Cells (atrial fibroblasts, HSCs and hepatocytes) were grown and maintained at 37° C. and 5% CO2. The growth medium was renewed every 2-3 days and cells were passaged at 80-90% confluence using standard trypsinization techniques. All the experiments were carried out at low cell passage (P1-P2). Cells were serum-starved for 16 h prior to stimulations. Stimulated cells were compared to unstimulated cells that have been grown for the same duration under the same conditions (serum-free media), but without the stimuli.
HSCs (5300, ScienCell) were cultured in stellate cells complete media (5301, ScienCell) on poly-L-lysine-coated plates (2 μg/cm2, 0403, ScienCell).
The Operetta assay was performed mostly as described previously 11 with minor modifications described here: HSCs or hepatocytes were seeded in 96-well black CellCarrier plates (PerkinElmer) at a density of 5×10^3 cells per well. Following experimental conditions, cells were fixed in 4% paraformaldehyde (PFA, 28908, Thermo Fisher), permeabilized with 0.1% Triton X-100 (Sigma) and non-specific sites were blocked with 0.5% BSA and 0.1% Tween-20 in PBS. Cells were incubated overnight (4° C.) with primary antibodies (1:500), followed by incubation with the appropriate AlexaFluor 488 secondary antibodies (1:1000). Rhodamine Phalloidin staining (1:1000, R415, Thermo Fisher) was performed by overnight incubation (4° C.). […]

The test system of assay [2] is mice with PDL. The experiment in a line: Pancreatic duct ligation (PDL) model of pancreatic injury. The conditions noted are these: 14 days. It is filed as in vivo, mouse. An excerpt:
FIGS. 50A to 50C. Schematic, box plot and images relating to the effect of antagonism of IL-11 mediated signalling in a pancreatic duct ligation (PDL) model of pancreatic injury. (A) Schematic representation of experiment in which pancreatic injury is induced by PDL, and wherein mice are subsequently treated with neutralising anti-IL-11 RA antibody or IgG isotype control antibody. (B) Ligated lobe weight for mice treated with neutralising anti-IL-11 RA antibody or IgG isotype control antibody at 14 days. (C) Representative images of Masson's Trichrome staining of pancreatic tissue from mice treated with neutralising anti-IL-11 RA antibody or IgG isotype control antibody at 14 days.

Assay [3] has as its system PSCs. The experiment in a line: Pancreatic stellate cell (PSC) activation in vitro. As to conditions: 24 hours. It is filed as cell-based. How it is done: FIGS. 48A and 48B. Box plots and images showing activation of pancreatic stellate cells (PSCs) to a αSMA-positive, collagen-expressing fibrogenic phenotype. (A) Quantification of high-content imaging assays for the percentage of ACTA2-positive cells and collagen I intensity/area following in vitro stimulation of PSCs for 24 hours with the indicated factors, in the presence or absence of neutralising anti-IL-11 RA antibody or IgG isotype control antibody. (B) Representative images for high-content imaging analysis of collagen I intensity/area following in vitro stimulation of PSCs for 24 hours with the indicated factors, in the presence of neutralising anti-IL-11 RA antibody or IgG isotype control antibody.

Assay [4] concerns primary human hepatocytes. Nature of the assay: Palmitate loading (lipotoxicity) of primary human hepatocytes. It is filed as cell-based. How it is done: Palmitate:BSA conjugated solution in the ratio of 6:1 was prepared as described earlier (Alsabeeh et al., 2018). Palmitate (0.5 mM) conjugated in fatty acids free BSA was used to treated cells as described in figure legends; 0.5% BSA solution was used as control. […]
Primary human hepatocytes were seeded on 8-well chamber slides (1×10^4 cells/well). For this experiment, cells were not serum-starved prior to palmitate treatment. 24 hours following palmitate stimulation, cells were washed, incubated with 25 μM of DCFDA solution (ab113851, Abcam) for 45 minutes at 37° C. in the dark, and rinsed with dilution buffer according to the manufacturer's protocol. Live cells with positive DCF staining were imaged with filter set appropriate for fluorescein (FITC) using a fluorescence microscope (Leica). […]
Western blots were carried out on total protein extracts from hepatocytes and liver tissues. Hepatocyte and liver tissue lysates were homogenized in RIPA Lysis and Extraction Buffer (89901, Thermo Scientific) containing protease and phosphatase inhibitors (Roche). Protein lysates were separated by SDS-PAGE and transferred to PVDF membranes. Protein bands were visualized using the ECL detection system (Pierce) with the appropriate secondary antibodies: anti-rabbit HRP or anti-mouse HRP.

The subject of assay [5] is MCD-fed db/db mice. The experiment in a line: MCD-fed db/db mouse NASH model. It is filed as in vivo. How it is done:
FIGS. 20A to 20N. Therapeutic targeting of Il-11 inhibits and reverses NASH pathologies in preclinical models. (A) Schematic showing therapeutic use of X203 and X209 (10 mg/kg, biweekly) in HFMCD-fed mice for experiments shown in (B-E). X203, X209 or IgG isotype control were administered from week 6 to 10 of HFMCD diet. (B) Representative liver histological images (Masson's Trichrome staining; scale bars, 100 μm), (C) relative liver hydroxyproline content, (D) relative liver pro-inflammatory mRNA expression levels (n≥6/group) and (E) serum ALT levels. (F) Western blots of hepatic Erk activation status. (G) Schematic of X203 or IgG administration to MCD-fed db/db mice for experiments shown in H-N. Western blots of hepatic (H) Il-11 and Gapdh, (I) p-Erk and Erk. (J) Representative Masson's Trichrome images of liver from X203 or IgG-treated MCD-fed db/db mice (scale bars, 100 μm). The levels of (K) hepatic triglyceride, (L) relative liver hydroxyproline, (M) serum ALT, and (N) mRNA expression of liver pro-inflammatory markers (n≥5/group). (C-E,K-N) Data are shown as box-and-whisker with median (middle line), 25th-75th percentiles (box) and min-max percentiles (whiskers); two-tailed, Tukey-corrected Student's t-test. FC: fold change; NC: normal chow; HFMCD: high fat methionine- and choline-deficient; MCD: methionine- and choline-deficient.
Male BKS.Cg-Dock7m+/+LeprdbJ (db/db) mice on C57BL/6J genetic background were 12 weeks of age and at the hepatic steatosis stage when they were fed methionine- and choline-deficient diet (MCD, A02082002BRi, Research Diets) for 8 weeks; control mice were of the same genotype. Durations of diet and antibody therapies are described.
Mice were injected intraperitoneally with either antagonist anti-IL-11 antibody, antagonist anti-IL11RA antibody or an identical amount of IgG isotype control for the treatment durations outlined in the figures.

B1: X209: mouse anti-mouse IL-11Rα IgG (IgG1κ), neutralising; VH SEQ ID NO:24, VL SEQ ID NO:25 (antibody, V domains shown)
VH: QVQLQQPGAELVRPGSSVKLSCKASGYTFTNYWMHWLKQRPVQGLEWIGNIGPSDSKTHYNQKFKDKATLTVDKSSSTAYMQLNSLTSEDSAVYYCARGDYVLFTYWGQGTLVTVSA
VL: DIVLTQSPATLSLSPGERATLSCRASQSISNNLHWYQQKSHEAPRLLIKYASQSISGIPARFSGSGSGTDFTLSFSSLETEDFAVYFCQQSYSWPLTFGQGTKLEIK
modifications: Enx209 VH; Enx209 VL
With B1, the “HSC transformation downstream of all factors, including IL-11” value in assay [1] is on record as “abolished”. Also, in assay [2], the pancreatic fibrosis result is on record as “reduced pancreatic fibrosis” and the “reduction in pancreatic tissue associated with PDL” value was “inhibited”. In addition, the “PSC activation irrespective of the stimulus (TGFβ1, IL-11, bFGF, CTGF, PDGF or ET-1)” value in assay [3] is “inhibited”. Besides, the palmitate-induced signaling events result in assay [4] (Western blot) was “largely inhibited”. Also, in assay [4] (X209 2 μg/ml or sgp130 1 μg/ml), the “secretion of cytokines (IL11, IL6, CCL2, CCL5)” value is reported as “reduced the secretion of all cytokines”. In assay [4] (palmitate), the “NOX4 upregulation by palmitate” value is reported as “inhibited”, the caspase3 activation result is “largely inhibited”, the “fatty acid synthase (FASN) upregulation” value is “largely inhibited” and the triglyceride accumulation entry is “largely inhibited”. In addition, in assay [4] (sFA-loaded hepatocytes), the ROS production result is listed as “prevent ROS production” and the “glutathione (GSH) levels” value is listed as “partial restoration”.

B2: X203: mouse anti-mouse IL-11 IgG (IgG1κ), neutralising; VH SEQ ID NO:22, VL SEQ ID NO:23 (antibody, V domains shown)
VH: EVQLQQSGPELVKPGASVKIPCKASGYTFTDYNMDWVKQSHGKSLEWIGDINPHNGGPIYNQKFTGKATLTVDKSSSTAYMELRSLTSEDTAVYYCARGELGHWYFDVWGTGTTVTVSS
VL: DIVLTQSPASLAVSLGQRATISCRASKSVSTSGYSYIHWYQQKPGQPPKLLIYLASNLDSGVPARFSGSGSGTDFTLNIHPVEEEDAATYYCQHSRDLPPTFGGGTKLEIK
modifications: Enx203 VH; Enx203 VL
Consider B2, for which, in assay [5], the ALT levels result was “lowering”, the “hepatic Erk activation” value is recorded as “inhibited”, the hepatic fibrosis result is listed as “reduced” and the hepatic inflammation entry is “reduced”. Moreover, the hepatic steatosis entry in assay [5] is “reduced”.
